Experimental data as given in publication PMC5670201 (2017).

Biological target: nab-paclitaxel nanoparticles (human, UniProt P02768 25-609)
Assay: BLI

- Kd: 4.51 µM
B1: biotinylated bevacizumab (antibody, V domains shown)
VH: EVQLVESGGGLVQPGGSLRLSCAASGYTFTNYGMNWVRQAPGKGLEWVGWINTYTGEPTYAADFKRRFTFSLDTSKSTAYLQMNSLRAEDTAVYYCAKYPHYYGSSHWYFDVWGQGTLVTVSS
VL: DIQMTQSPSSLSASVGDRVTITCSASQDISNYLNWYQQKPGKAPKVLIYFTSSLHSGVPSRFSGSGSGTDFTLTISSLQPEDFATYYCQQYSTVPWTFGQGTKVEIK
modifications: biotin (sites not given) | biotin (sites not given)
